The values below come from patent publication US20220281998A1 (AZUSAPHARMA SCIENCES, published 2022).

Assay [1] deals with T1, human CD3E/CD3D heterodimer recombinant protein (manufactured by ACROBiosystems) (human, UniProt P07766 23-126; P04234 22-105).
T1 construct: Bought reagent, immobilised on ELISA plates
The experiment in a line: ELISA, immobilised human CD3E/CD3D heterodimer, 10-1000 ng/mL BsAb, absorbance rose with concentration.

In assay [2] the target is T2, recombinant biotinylated HER2 (manufactured by ACROBiosystems) (human, UniProt P04626 23-652, biotinylated (site not stated)).
T2 construct: also called human HER2
The experiment in a line: sandwich ELISA: immobilised human CD3E/CD3D heterodimer, BsAb, detection with biotinylated HER2.

For assay [3], the target named is human EGFR on human cancer cell lines (HCT116, A-431, NCI-H1975, HT-29, RKO) (human, UniProt P00533 25-1210). The experiment in a line: cell-based or functional assay.

T1 sequence (P07766 23-126 limits assumed, chain 1 of 2): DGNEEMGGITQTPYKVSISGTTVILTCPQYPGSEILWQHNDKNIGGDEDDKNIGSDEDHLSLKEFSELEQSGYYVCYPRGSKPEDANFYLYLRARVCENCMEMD
T1 sequence (P04234 22-105 limits assumed, chain 2 of 2): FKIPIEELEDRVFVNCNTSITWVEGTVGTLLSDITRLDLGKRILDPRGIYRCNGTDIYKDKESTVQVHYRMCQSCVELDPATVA

B1: LH31 diabody-type BsAb (EGFR×CD3 diabody-type BsAb derived from DUM-31H strain) (bispecific antibody)
chain 1: ATLTPDIQMTQSPSSLSASVGDRVTITCRASQDIRNYLNWYQQKPGKAPKLLIYYTSRLESGVPSRFSGSGSGTDYTLTISSLQPEDFATYYCQQGNTLPWTFGQGTKVEIKAAGGGGSEVQLVESGGGLVQPGGSLRLSCAASGFTLSGDWIHWVRQAPGKGLEWLGEISAAGGYTDYADSVKGRFTISADTSKNTAYLQMNSLRAEDTAVYYCARESRVSFEAAMDYWGQGTLVTVSSAAAAEQKLISEEDLNLGGGMRGSHHHHHH
chain 2: ATLTPDIQMTQSPSSLSASVGDRVTITCRASQDLATDVAWYQQKPGKAPKLLIYSASFLYSGVPSRFSGSGSGTDFTLTISSLQPEDFATYYCQQSEPEPYTFGQGTKVEIKAAGGGGSEVQLVESGGGLVQPGGSLRLSCAASGYSFTGYTMNWVRQAPGKGLEWVALINPYKGVSTYNQKFKDRFTISVDKSKNTAYLQMNSLRAEDTAVYYCARSGYYGDSDWYFDVWGQGTLVTVSSAAAEQKLISEEDLNLGGGMRGSHHHHHH
notes: Heterodimer of polypeptides 1 and 2, secreted by Bifidobacterium longum 105-A carrying pLH31-L5, purified through the His tag; also called LH31 polypeptide 1 + LH31 polypeptide 2 with SP50-L5
On to B1, for which the binding result in assay [1] is recorded as “binds”; in assay [2], “no binding”. In assay [3], the “EC50: concentration that reduced the viability of HCT116 cells to 50% (T-LAK:HCT116 5:1, 24 h)” value stood at 0.032 nM.
